Source: US20110135636A1 (SYMPHOGEN A S, published 2011)

Tests used:
[1] = target: T1, recombinant human EGFR extracellular domain with 6xHis (human, UniProt P00533 25-645); experiment: SPR competition, competitor Ab-3
T1 construct: In-house produced; also called 6xHis EGFR ECD; soluble human EGFR ECD; not shown: 6xHis tag
Description: (§1) SPR analysis was performed on a Biacore 3000 machine containing four flow cells. A CM5 Biacore chip was conjugated with 10,000 Resonance units (Ru) polyclonal anti-His antibody to flow cells 1-4 according to the manufacturer's instructions. […] Immediately after antigen injection the maximal binding of the Anti-EGFR mAb without competition was established in each flow cell during a reference run. Briefly 5 μl antibody at a concentration of 40 μg/ml was injected over all flow cells with captured EGFR followed by stripping of the antibody/antigen complex with a low pH acid wash (10 sec. contact time with 10 mM Glycine-HCl, pH2). After the determination of Anti-EGFR antibody maximal binding to each flow cell, a competition run was performed during the same Biacore cycle. Flow cells were first saturated with EGFR ECD antigen followed by injection of different reference antibodies or Anti-EGFR antibodies into separate flow cells using the same antigen saturating conditions as outlined above. This step was immediately followed by a second injection of Anti-EGFR antibody over the flow cell saturated with EGFR antigen and competition antibody to minimize the dissociation of either antigen or blocking antibody. Then the antibody/antigen complexes were stripped off with a low pH acid wash (10 sec. contact time with 10 mM Glycine-HCl, pH 2) and the whole cycle beginning with the reference run was repeated with a new Anti-EGFR antibody. The degree of inhibition of tested Anti-EGFR antibodies were determined by comparing the Ru max value of the individual Anti-EGFR antibody before and after competition by introduction of report points recorded two seconds before and after injection of each sample.

[2] = target: T1, recombinant human EGFR extracellular …; experiment: SPR competition, competitor Ab-1
Description: as §1

[3] = target: T2, wild type full length EGFR purified from A431 cells (human, UniProt P00533 25-1210); experiment: competition ELISA, competitor Ab-2; set-up: concentration or dose not given beside the values
T2 construct: mature; Bought; coated on ELISA wells; also called full length EGFR receptor antigen; Sigma E3641
Description: (§2) The ELISA was adapted from the descriptions published in Ditzel et al, 1995, The Journal of Immunology, Vol 154, Issue 2 893-906.
(§3) An epitope blocking ELISA was performed by diluting full length EGFR receptor antigen to 0.5 μg/ml in PBS; and coating 50 μl/ELISA well overnight at 4° C. […] Finally wells were washed four times with PBS-T and plates were developed by adding 50 μl/well TMB and read at 620 nm every 5-15-30 min. The degree of inhibition was calculated from the formula: % inhibition=(1−(OD competition/OD no competition (PBS)))×100.

[4] = target: T2, wild type full length EGFR purified …; experiment: competition ELISA, competitor Ab-3; set-up: concentration or dose not given beside the values
Description: as §2, §3

[5] = target: T1, recombinant human EGFR extracellular …; experiment: SPR competition, competitor Ab-10
Description: as §1

[6] = target: T2, wild type full length EGFR purified …; experiment: competition ELISA, competitor Ab-1; set-up: concentration or dose not given beside the values
Description: as §2, §3

[7] = target: T1, recombinant human EGFR extracellular …; experiment: SPR competition, competitor Erbitux
Description: as §1

[8] = target: T2, wild type full length EGFR purified …; experiment: competition ELISA, competitor Ab-5; set-up: concentration or dose not given beside the values
Description: as §2, §3

[9] = target: T1, recombinant human EGFR extracellular …; experiment: SPR competition, competitor 1042
Description: as §1

[10] = target: T2, wild type full length EGFR purified …; experiment: competition ELISA, competitor Ab-10; set-up: concentration or dose not given beside the values
Description: as §2, §3

[11] = target: T1, recombinant human EGFR extracellular …; experiment: SPR competition, competitor Erbitux; remark: listed apart in the source
Description: as §1

[12] = target: T1, recombinant human EGFR extracellular …; experiment: SPR competition, competitor ICR10
Description: as §1

[13] = target: T1, recombinant human EGFR extracellular …; experiment: SPR competition, competitor Ab-11
Description: as §1

[14] = target: T1, recombinant human EGFR extracellular …; experiment: SPR competition, competitor 1449
Description: as §1

[15] = target: T2, wild type full length EGFR purified …; experiment: competition ELISA, competitor ICR10; set-up: concentration or dose not given beside the values
Description: as §2, §3

[16] = target: T2, wild type full length EGFR purified …; experiment: competition ELISA, competitor Ab-11; set-up: concentration or dose not given beside the values
Description: as §2, §3

[17] = target: T1, recombinant human EGFR extracellular …; experiment: SPR competition, competitor Vectibix
Description: as §1

[18] = target: T1, recombinant human EGFR extracellular …; experiment: SPR competition, competitor Vectibix; remark: listed apart in the source
Description: as §1

[19] = target: T1, recombinant human EGFR extracellular …; experiment: SPR competition, competitor 992 corr
Description: as §1

[20] = target: T1, recombinant human EGFR extracellular …; experiment: SPR competition, competitor Ab-5
Description: as §1

[21] = target: T3, Cynomolgus EGFR extracellular domain (Cynomolgus monkey (Macaca fascicularis), UniProt P55245 25-645 (rhesus entry)); experiment: ELISA on cynomolgus EGFR ECD (Example 10)
T3 construct: Cloned without signal peptide; also called Cynomolgus rEGFR ECD; Cynomolgus EGFR ECD
Description: To verify that tested Anti-EGFR antibodies bound equally well to both Human and Cynomolgus EGFR ECD and accordingly warranting toxicology studies in Cynomolgus monkeys, serial four fold dilutions of antibodies beginning from 1 μg/ml were tested by ELISA for binding to recombinant Human and Cynomolgus EGFR ECD proteins. […] ELISA wells were coated with 50 μl/well of full length EGFR at a concentration of 1 μg/ml in PBS overnight at 4° C. The next morning wells were washed twice with PBS-T and blocked for one hour with 100 μl PBS-T-1% BSA at room temperature, followed by wash twice in PBS-T. Next 50 μl of serially diluted Anti-EGFR antibodies and control antibodies were added to wells and incubated for one hour at room temperature. After antibody incubation wells were washed five times with PBS-T, followed by incubation with 50 μl/well Streptavidin-HRP secondary reagent diluted 1:3000 in blocking buffer and incubation at room temperature for 30 min. Finally wells were washed five times with PBS-T and plates were developed by adding 50 μL/well TMB substrate and incubated at room temperature. After incubation the reaction was stopped by addition of 1 M H₂SO₄; 100 μl/well and plates were read at OD 450 nm.

[22] = target: T1, recombinant human EGFR extracellular …; experiment: SPR competition, competitor 1344
Description: as §1

[23] = target: T1, recombinant human EGFR extracellular …; experiment: SPR competition, competitor 1347
Description: as §1

[24] = target: T1, recombinant human EGFR extracellular …; experiment: SPR (BIAcore 2000); IgG captured on anti-human Fc, soluble monovalent EGFR ECD injected
Description: Kinetic analysis of the full length IgG antibodies of the invention was performed on a BIAcore 2000, employing an assay as described in (Canziani, Klakamp, et al. 2004, Anal. Biochem, 325:301-307) allowing measurement of monovalent affinities of whole IgG molecules against soluble antigen. […] The chip surface was regenerated in between cycles by stripping the captured antibody/antigen complexes with a 10 second injection of 100 mM H₃PO₄. […] The association rate constant (ka) and dissociation constant (kd) were evaluated globally from the generated sensograms with the BIA evaluation software 4.1 provided by the manufacturer.

[25] = target: T1, recombinant human EGFR extracellular …; experiment: SPR competition, competitor 1257
Description: as §1

[26] = target: T1, recombinant human EGFR extracellular …; experiment: SPR competition, competitor 1320
Description: as §1

[27] = target: T1, recombinant human EGFR extracellular …; experiment: SPR competition, competitor 1261
Description: as §1

[28] = target: T1, recombinant human EGFR extracellular …; experiment: SPR competition, competitor 1208
Description: as §1

[29] = target: T1, recombinant human EGFR extracellular …; experiment: SPR competition, competitor 1277
Description: as §1

[30] = target: T1, recombinant human EGFR extracellular …; experiment: SPR competition, competitor 1254
Description: as §1

[31] = target: T1, recombinant human EGFR extracellular …; experiment: SPR competition, competitor 1308
Description: as §1

[32] = target: T1, recombinant human EGFR extracellular …; experiment: SPR competition, competitor 1030corr
Description: as §1

[33] = target: T1, recombinant human EGFR extracellular …; experiment: SPR competition, competitor 1260
Description: as §1

[34] = target: T1, recombinant human EGFR extracellular …; experiment: SPR competition, competitor 1284
Description: as §1

[35] = target: T1, recombinant human EGFR extracellular …; experiment: SPR competition, competitor 1024
Description: as §1

B1: antibody 1042 (antibody, human IgG1, kappa, V domains shown)
VH: QVQLQQPGAELVKPGASVKLSCKASGYTFTSHWMHWVQQRPGQGLEWIGEIHPSNGRTNYNEKFKNKATLTVDKSPSTAYMQLSSLTSEDSAVYYCARYYGYDDAMDYWGQGTSVTVSS
VL: DIVMTQAAFSNPVTLGTSASISCRSSKSLLHSNGITYLYWYLQKPGQSPQLLIYQMSNLASGVPDRFSSSGSRTDFTLRISRVEAEDVGVYYCAQNLELPYTFGGGTKLEIKR
notes: Chimeric IgG1 kappa; RA- left out of the VH entry
- % inhibition [1]: 0%
- % inhibition [2]: 14%
- % inhibition [3]: 81%
- % inhibition [4]: -29%
- % inhibition [5]: -4%
- % inhibition [6]: 24%
- % inhibition [7]: 107%
- % inhibition [8]: -7%
- % inhibition [9]: 83%
- % inhibition [10]: 15%
- % inhibition [11]: 107%
- % inhibition [12]: -6%
- % inhibition [13]: -8%
- % inhibition [14]: 93%
- % inhibition [15]: -7%
- % inhibition [16]: 7%
- % inhibition [17]: 103%
- % inhibition [18]: 110%
- % inhibition [19]: 25%
- % inhibition [20]: 10%
- binding result [21]: binds

B2: antibody 1254 (antibody, human IgG1, kappa, V domains shown)
VH: EVQLVESGGGLVKPGGSLKLSCAASGFAYSTYDMSWVRQTPEKRLEWVAYISSGGDAAYYPDTVKGRFTISRDNAKNTLYLQMSSLKSEDTAMYYCARSRYGNYGDAMDYWGQGTSVTVSS
VL: DVVMTQTPLSLPVSLGDQASISCRSSQSLVHSNGNTYLHWYLQKPGQSPKLLLYKVSNRFSGVPDRFSGSGSGTDFTLKISRVESEDLGVYFCSQNTHVYTFGGGTKLEIKR
notes: Chimeric IgG1 kappa; also called mAb 1254
- % inhibition [22]: 4%
- % inhibition [23]: 3%
- Kd [24]: 12.7 nM
- koff [24]: 0.001 s⁻¹
- kon [24]: 81000 M⁻¹ s⁻¹
- t1/2 [24]: 11.3 min
- % inhibition [25]: 7%
- % inhibition [9]: 29%
- % inhibition [26]: 6%
- % inhibition [27]: 6%
- % inhibition [11]: 44%
- % inhibition [28]: 108%
- % inhibition [14]: 5%
- % inhibition [29]: 99%
- % inhibition [30]: 102%
- % inhibition [17]: 96%
- % inhibition [31]: -2%
- % inhibition [19]: 106%
- % inhibition [32]: 82%
- binding result [21]: binds
- % inhibition [33]: 0%
- % inhibition [34]: 6%
- % inhibition [35]: 6%

B3: antibody 1277 (antibody, human IgG1, kappa, V domains shown)
VH: EVQLVESGGGLVKPGESLKLSCAASGFAFSYSDMSWVRQTPEKRLEWVAYMSSAGDVTFYSDTVKGRFTISRDNAKNTLYLQVSSLKSEDTAIYYCVRHRDVAMDYWGQGTSVTVSS
VL: DVVMTQTPLSLPVSLGDQASISCRSSQSLVHSNGNTYLHWYLQKPGQSPKLLIYKVSNRFSGVPDRFSGSGSGTDFTLKISRVEAEDLGVYFCSQSTHVPTFGGGTKLEIKR
notes: Chimeric IgG1 kappa; also called clone 1277
- binding result [21]: binds
